Where a chain is given by its changes, count along the chain named.
B1: double mutant of R-5 (Mut B) (other)
chain: MSLPATHDLHISGSINGHEFDLEGSGKGNAKEGYQELHLKSNKGDLSFSPWILVPNIGYGFYQYLPFPDGAMSPYQAAMHDGSGYVMHRSMQFEDGAMLHSDHRYIYKGNHIKGEFRLKGSGFPADGPVMTNSLTAADWCVDKLLYPNDNTIIGKFDWTYTTTSGKRYQSDVQTTVTFGKPIAADILKKQPMFVFRKVELKHTKTELNFKQWQKAFQDIA
notes: Expressed in E. coli and purified; Eluted as a dimer; also called dimeric mutant
B2: triple mutant of R-5 (Mut C) (other)
chain: B1 chain with D157K
notes: Expressed in E. coli and purified; Eluted as a monomer; also called R-5C; monomeric mutant

Columns and labels:
[1] = target: the molecule itself; assay: gel chromatography, HiPrep Sephacryl S-200, high protein concentrations (self-association)
Description: (§1) The wild-type fluorescent proteins have a tendency to self-aggregate and form tetramers. Among the limited number of new FPs that we so far have analyzed, no monomeric variant has been observed, but the tendency to self-aggregate appears to vary among individual variants. In order to generate a pure monomeric variant, which would be advantageous for certain applications, the protein R-5 (SEQ ID NO: 79) was subjected to limited mutagenesis after extensive 3-D modelling. Three amino acid residues were chosen as suitable candidates for mutagenesis, and three mutants with single, double and triple mutations were constructed and custom made by an external laboratory. After expression in E. coli and purification their aggregation state were analyzed by gel-chromatography on a HiPrep Sephacryl S-200 column. The conditions used (i.e. high protein concentrations) were chosen to promote aggregation, and EGFP, which is a weak forming dimer, did elute as a peak with an apparent molecular weight of ˜60 kDa, i.e. as a dimer.

[2] = target: the molecule itself; assay: gel chromatography, HiPrep Sephacryl S-200, high protein concentrations chosen to promote aggregation (self-association)
Description: as §1

| Protein | binding result [1] | binding result [2] |
| --- | --- | --- |
| B1 | binds | – |
| B2 | – | no binding |

— patent publication US20090286314A1 (Innovent, published 2009)
